Data as given in patent publication US20240325557A1, “TREATMENT OF CANCER” (INNATE PHARMA, priority 2020, published 2024).

Key:
[1] = biological target: HER2 on SUM185 and SUM190 human breast cancer tumor cells (human) (UniProt P04626); test: flow cytometry on SUM185 cells, antibody at 10 µg/ml
[2] = biological target: HER2 on SUM185 and SUM190 human breast cancer tumor cells (human) (UniProt P04626); test: flow cytometry on SUM190 cells, antibody at 10 µg/ml

MFI (median fluorescence units) [1]: 2880 | MFI (median fluorescence units) [2]: 1780
Substance: Anti-Her2 antibody trastuzumab modified as human IgG1 isotype containing a N297Q mutation
